Columns and labels:
[1] = target: T1, N-Ac-LEVD-N′-ethoxycarbonyl R110 SEQ ID NO:9
T1 chain: LEVD

[2] = target: T2, N-(Z-DEVD)-N′-acetyl-Rhodamine 110 SEQ ID NO:5
T2 chain: DEVD

(Z-VAD)2-Rhodamine 110 = target: T3, (Z-VAD)2-Rhodamine 110
T3 chain: VAD

[3] = target: T4, N-(Z-VAD)-N′-acetyl-Rhodamine 110
T4 chain: VAD

[4] = target: T5, (Z-YVAD)2-Rhodamine 110 SEQ ID NO:2
T5 chain: YVAD

[5] = target: T6, N-(Z-YVAD)-N′-acetyl-Rhodamine 110 SEQ ID NO:2
T6 chain: YVAD

[6] = target: T7, N-(Z-VD)-N′-acetyl-Rhodamine 110
T7 chain: VD

[7] = target: T8, N-Z-EVD-N′-ethoxycarbonyl-R110
T8 chain: EVD

[8] = target: T9, N-Ac-DEVD-N′-ethoxycarbonyl-R110 SEQ ID NO:5
T9 chain: DEVD

[9] = target: T10, N-Ac-DEVD-N′-octyloxycarbonyl-R110 SEQ ID NO:5
T10 chain: DEVD

[10] = target: T11, N-Ac-DEVD-N′-hexyloxycarbonyl-R110 SEQ ID NO:5
T11 chain: DEVD

[11] = target: T12, N-Ac-DEVD-N′-(ethylthio)carbonyl-R110 SEQ ID NO:5
T12 chain: DEVD

[12] = target: T13, N-Z-DEVD-N′-ethoxycarbonyl-R110 SEQ ID NO:5
T13 chain: DEVD

[13] = target: T14, N-Z-VD-N′-ethoxycarbonyl-R110
T14 chain: VD

B1: recombinant human caspase-8 (protein)
chain: SESQTLDKVYQMKSKPRGYCLIINNHNFAKAREKVPKLHSIRDRNGTHLDAGALTTTFEELHFEIKPHDDCTVEQIYEILKIYQLMDHSNMDCFICCILSHGDKGIIYGTDGQEAPIYELTSQFTGLKCPSLAGKPKVFFIQACQGDNYQKGIPVETDSEEQPYLEMDLSSPQTRYIPDEADFLLGMATVNNCVSYRNPAEGTWYIQSLCQSLRERCPRGDDILTILTEVNYEVSNKDDKKNMGKQMPQPTFTLRKKLVFPSD
For B1, the “signal to background ratio (fluorescence of cleaved substrate)” value [1] was “signal to background ratios of about 13 for caspase-6 to about 26 for caspase-8”.

B2: recombinant human caspase-7 (protein)
chain: AKPDRSSFVPSLFSKKKKNVTMRSIKTTRDRVPTYQYNMNFEKLGKCIIINNKNFDKVTGMGVRNGTDKDAEALFKCFRSLGFDVIVYNDCSCAKMQDLLKKASEEDHTNAACFACILLSHGEENVIYGKDGVTPIKDLTAHFRGDRCKTLLEKPKLFFIQACRGTELDDGIQADSGPINDTDANPRYKIPVEADFLFAYSTVPGYYSWRSPGRGSWFVQALCSILEEHGKDLEIMQILTRVNDRVARHFESQSDDPHFHEKKQIPCVVSMLTKELYFSQ
For B2, the “fluorescent signal of cleaved substrate” value [1] was “Caspase-7 gave virtually no signal”.

B3: Recombinant ICE protein (protein)
chain: NPAMPTSSGSEGNVKLCSLEEAQRIWKQKSAEIYPIMDKSSRTRLALIICNEEFDSIPRRTGAEVDITGMTMLLQNLGYSVDVKKNLTASDMTTELEAFAHRPEHKTSDSTFLVFMSHGIREGICGKKHSEQVPDILQLNAIFNMLNTKNCPSLKDKPKVIIIQACRGDSPGVVWFKDSVGVSGNLSLPTTEEFEDDAIKKAHIEKDFIAFCSSTPDNVSWRHPTMGSVFIGRLIEHMQEYACSCDVEEIFRKVRFSFEQPDGRAQMPTTERVTLTRCFYLFPGH
B3 was tested, and the Km [2] was 12 µM, the Vmax [2] was 9 nmol/min and the Km ((Z-VAD)2-Rhodamine 110) was 21 µM. It also gave a Vmax ((Z-VAD)2-Rhodamine 110) of 9 nmol/min, a Km [3] of 70 µM and a Vmax [3] of 4 nmol/min. The Km [4] was 6 µM, the Vmax [4] was 14 nmol/min and the Km [5] was 32 µM. The Vmax [5] was 96 nmol/min.

B4: Recombinant CPP32 protein (protein)
chain: SGISLDNSYKMDYPEMGLCIIINNKNFHKSTGMTSRSGTDVDAANLRETFRNLKYEVRNKNDLTREEIVELMRDVSKEDHSKRSSFVCVLLSHGEEGIIFGTNGPVDLKKITNFFRGDRCRSLTGKPKLFIIQACRGTELDCGIETDSGVDDDMACHKIPVEADFLYAYSTAPGYYSWRNSKDGSWFIQSLCAMLKQYADKLEFMHILTRVNRKVATEFESFSFDATFHAKKQIPCIVSMLTKELYFYH
B4 showed a Km [2] of 154 µM, a Vmax [2] of 160 nmol/min and a Km [6] of 60 µM.

B5: recombinant human caspase-3 (protein)
chain: SGISLDNSYKMDYPEMGLCIIINNKNFHKSTGMTSRSGTDVDAANLRETFRNLKYEVRNKNDLTREEIVELMRDVSKEDHSKRSSFVCVLLSHGEEGIIFGTNGPVDLKKITNFFRGDRCRSLTGKPKLFIIQACRGTELDCGIETDSGVDDDMACHKIPVEADFLYAYSTAPGYYSWRNSKDGSWFIQSLCAMLKQYADKLEFMHILTRVNRKVATEFESFSFDATFHAKKQIPCIVSMLTKELYFYH
With B5 the “Cleavage by Caspase-3” value [7] was “Fair”, the “Cleavage by Caspase-3” value [8] was “Good” and the “Cleavage by Caspase-3” value [9] was “Good”. The “Cleavage by Caspase-3” value [10] was “Good”, the “Cleavage by Caspase-3” value [11] was “Good” and the “Cleavage by Caspase-3” value [12] was “Good”. The “Cleavage by Caspase-3” value [13] was “Poor”, the “amount of enzyme needed for cleavage, against tri- and tetrapeptide substrates” value [13] was “a 50-fold greater amount of enzyme than needed for tri- and tetrapeptide substrates” and the “signal above the enzyme blank value (fluorescence of cleaved substrate)” value [1] was “a signal that was about 5-fold above the enzyme blank value”.

B6: recombinant human caspase-6 (protein)
chain: AFYKREMFDPAEKYKMDHRRRGIALIFNHERFFWHLTLPERRGTCADRDNLTRRFSDLGFEVKCFNDLKAEELLLKIHEVSTVSHADADCFVCVFLSHGEGNHIYAYDAKIEIQTLTGLFKGDKCHSLVGKPKIFIIQACRGNQHDVPVIPLDVVDNQTEKLDTNITEVDAASVYTLPAGADFLMCYSVAEGYYSHRETVNGSWYIQDLCEMLGKYGSSLEFTELLTLVNRKVSQRRVDFCKDPSAIGKKQVPCFASMLTKKLHFFPKSN
With B6 the “signal to background ratio (fluorescence of cleaved substrate)” value [1] was “signal to background ratios of about 13 for caspase-6 to about 26 for caspase-8”.

— patent US20020150885
